Consider one molecule from publication PMC7202667, “UNBRANCHED3 Expression and Inflorescence Development is Mediated by UNBRANCHED2 and the Distal Enhancer, KRN4, in Maize”.

The target in one data set is T1, OBF1, MBP fusion (Zea mays, UniProt P24068 1-151).
T1 sequence: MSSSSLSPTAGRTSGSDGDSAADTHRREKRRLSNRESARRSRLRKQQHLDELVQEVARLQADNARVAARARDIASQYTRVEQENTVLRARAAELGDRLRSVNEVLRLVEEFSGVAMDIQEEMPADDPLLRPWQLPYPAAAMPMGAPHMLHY
In words: EMSA; poly(dI-dC), 5 mM MgCl2; EMSA: 10 mM Tris pH 7.5, 50 mM KCl, 1 mM DTT, 5 mM MgCl2, 2.5% glycerol, poly(dI-dC), 0.05% NP-40; 20-40 ng protein, probe 10 fM (so in the source); room temperature. Conditions: protein: recombinant; tags: N-MBP (pMAL-c2x); chain copies: 2; label: 5'-biotin; blunt. A general note: A gel shift assay detects complexes by their altered migration in electrophoresis.

The next data set addresses T2, OBF4, MBP fusion (Zea mays, UniProt B4FFB3 1-396).
T2 sequence: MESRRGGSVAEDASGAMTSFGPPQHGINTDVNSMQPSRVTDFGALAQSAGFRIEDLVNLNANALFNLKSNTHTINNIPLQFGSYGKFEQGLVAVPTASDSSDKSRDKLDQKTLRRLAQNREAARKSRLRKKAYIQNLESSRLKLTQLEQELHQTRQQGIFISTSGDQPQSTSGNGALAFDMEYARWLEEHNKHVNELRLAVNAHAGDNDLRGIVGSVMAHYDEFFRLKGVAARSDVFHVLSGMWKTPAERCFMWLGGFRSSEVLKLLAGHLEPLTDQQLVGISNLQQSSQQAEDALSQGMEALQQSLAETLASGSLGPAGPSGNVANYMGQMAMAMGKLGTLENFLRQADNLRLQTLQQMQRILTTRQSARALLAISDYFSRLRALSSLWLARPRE
The description is as above. Conditions: protein: recombinant; tags: N-MBP (pMAL-c2x); chain copies: 2; label: 5'-biotin; blunt.

B1: 3xE1 probe (3E1X) (dsDNA)
DNA 1: ACATGGCACGACACGTAGTGAACCACATGGCACGACACGTAGTGAACCACATGGCACGACACGTAGTGAACC
DNA 2: GGTTCACTACGTGTCGTGCCATGTGGTTCACTACGTGTCGTGCCATGTGGTTCACTACGTGTCGTGCCATGT
As to B1, the binding result was “binds” in the data set with OBF1, MBP fusion and “binds” in the data set with OBF4, MBP fusion.
